Assay results taken from patent US8691772B2, “HSP60, HSP60 peptides and T cell vaccines for immunomodulation” (Yeda Research and Development Co. Ltd., priority 2005, dated 2014).

Assays:
[1] = system: AKT, Pyk-2, p38, ERK, NF-κB, T-bet; test: Western blot analysis of CD4+CD25+ / CD4+CD25- T-cell lysates; type: cell-based, human
Source text: CFSE labeling of CD4^+CD25^− T cells. CD4^+CD25^− T cells were labeled with Vybrant™ CFDA SE Cell Tracer Kit (Molecular Probes; Eugene, Oreg.) according to the manufacturer's instructions. Labeled CD4^+CD25^− T cells were co-cultured with CD4^+CD25^+ T cells on anti-CD3 mAb, as described above, for 6 hr. After co-culture, CD4^+CD25^− T cells were isolated by sorting using a Becton Dickinson FACSVantage (Mountain View, Calif.).
Western blot analysis of T-cell lysates. Indicated populations of T cells (5×10^6) were preincubated with 1 ng/ml of HSP60 for 10 min (37° C. in a 7% CO2, humidified atmosphere). […] Total cell lysates, nuclear and cytoplasmic extracts were prepared as previously described (Zanin-Zhorov et al., 2003, section D of the Examples herein), analyzed for protein content. Sample buffer was then added and, after boiling, the samples, containing equal amounts of proteins, were separated on 10% SDS-PAGE gel and transferred to nitrocellulose membranes. The membranes were blocked and probed with the following mAb in the same buffer: anti-phosphorylated (p) ERK. […]

[2] = system: human CD3^+, CD4^+, and CD8^+ T cells; test: Cytokine secretion of anti-CD3-activated CD3+, CD4+, CD8+ and CD25-separated T cells; type: cell-based; conditions: for secretion of IL-10 and TGF-β: anti-CD3
Source text: Purified T-cell populations. […] In a second round of purification, CD4^+ T cells were separated to CD25^− and CD25^+ populations with magnetically coupled mAb against human CD25 (Miltenyi Biotec; Bergisch Gladbach, Germany).

CD8^+ T cells = test: Co-culture of treated CD4+CD25+ T cells with CD8+ T cells; type: cell-based, human; conditions: 1% or more HSP60-treated CD4+CD25+ T cells; anti-CD3 24 hr
SOCS3 = SOCS3 expression in mouse lymphocytes / T cells (immunoblot); type: cell-based; conditions: for SOCS3 expression: 1 ng/ml, 1 hr
Source text: (§1) Mice and mouse T cells. Female C57BL/6J were obtained from Harlan Olac (Bicester, U.K.). TLR2-knockout mice on the C57BL/6J background were kindly provided by Dr. S. Akira (Osaka University, Osaka, Japan). CD3^+ T cells were isolated by negative selection with anti-mouse antibody cocktail (Pan T cell kit; Miltenyi Biotec; CITY Germany). The labeled cells were then passed through separation columns (MidiMACS columns, Miltenyi Biotec). The purified cells (>97% T cells) were untreated or treated with HSP60 as described. Similarly, T cells were purified from the lymph nodes of BALB/c mice (females, 1.5 months of age).
Western blotting of T-cell lysates. T cells were incubated (24 hr, 37° C.) in starvation medium (RPMI medium without serum). Aliquots (5×10^6/sample) of the starved cells were preincubated (for various intervals) with different concentrations of HSP60 prior to exposure to SDF-1α (100 ng/ml, 10 min, 37° C., tissue culture conditions). These reactions were terminated by freezing the plates (−70° C., 10 min). The plates were thawed, and the cells solubilized by incubating (60 min, 4° C.) in lysis buffer [EDTA (0.5 mM), NaCL (150 mM), NaF (10 nM), Tris pH 7.5 (25 mM), Triton X-100 (1%), PMSF (200 pg/ml), and phosphatase inhibitor cocktail (1%)]. Lysates were cleared by centrifugation (30 min, 14×10^3 rpm, 4° C.), and the resulting supernatants analyzed for protein content. Sample buffer was added, the samples were boiled, and equal amounts of proteins were separated by 10% SDS-PAGE and transferred to nitrocellulose membranes. […] Phosphorylation levels of the 3-5 independent experiments were estimated by densitometry, and an average percentage of phosphorylation±SD was calculated as OD of pERK/tERK, or pPyk2/tPyk2, or pAKT/tAKT, pMLC/tMLC, or pSTAT3/tSTAT3×100%.

BALB/c lymph node-cells = test: T-cell migration assay towards SDF-1α, mouse lymph node cells; type: cell-based, BALB/c mice; conditions: in vitro, HSP60 1 hr
Source text: as §1
(§2) T-cell migration assay. Migration of ^51[Cr]-labeled human and mouse T cells through FN or endothelial cells to recombinant human SDF-1α was examined in 48-well Transwell chemotaxis apparatus (5-μm pore filters, 6.5-mm diameter; Corning, N.Y.), as previously described (Zanin-Zhorov et al., 2003b). For transendothelial migration assays, 2×10^4 cells of HUVEC were layered on the filters and grown in 10% FCS M199 for 2 days before the performance of each assay. Then, HUVEC were stimulated with TNF-α (50 ng/ml) for 24 hr and washed.

human T cells = test: T-cell migration assay towards SDF-1α, human T cells; type: cell-based; conditions: 1 hr pre-incubation
Source text: Human cells. […] Human umbilical cord vein endothelial cells (HUVEC) were isolated from umbilical cord veins and cultured as described (Ponomaryov et al., 2000). Primary cultures were serially passaged, and passages 2 and 3 were taken for experiments.
as §2

[3] = CD3+ and CD4+ T cells pre-treated 2 hours, washed, anti-CD3 24 hr

B1: HSP60: recombinant human heat shock protein 60 (StressGen Biotechnologies) (protein)
chain: AKDVKFGADARALMLQGVDLLADAVAVTMGPKGRTVIIEQSWGSPKVTKDGVTVAKSIDLKDKYKNIGAKLVQDVANNTNEEAGDGTTTATVLARSIAKEGFEKISKGANPVEIRRGVMLAVDAVIAELKKQSKPVTTPEEIAQVATISANGDKEIGNIISDAMKKVGRKGVITVKDGKTLNDELEIIEGMKFDRGYISPYFINTSKGQKCEFQDAYVLLSEKKISSIQSIVPALEIANAHRKPLVIIAEDVDGEALSTLVLNRLKVGLQVVAVKAPGFGDNRKNQLKDMAIATGGAVFGEEGLTLNLEDVQPHDLGKVGEVIVTKDDAMLLKGKGDKAQIEKRIQEIIEQLDVTTSEYEKEKLNERLAKLSDGVAVLKVGGTSDVEVNEKKDRVTDALNATRAAVEEGIVLGGGCALLRCIPALDSLTPANEDQKIGIEIIKRTLKIPAMTIAKNAGVEGSLIVEKIMQSSSEVGYDAMAGDFVNMVEKGIIDPTKVVRTALLDAAGVASLLTTAEVVVTEIPKEEKDPGMGAMGGMGGGMGGGMF
phosphorylation of AKT, Pyk-2, and p38 ([1]; CD4+CD25+ T cells, 1 ng/ml, 10 min): induced phosphorylation of AKT, Pyk-2, and p38
ERK phosphorylation, NF-κB nuclear translocation and T-bet expression in CD4+CD25- T cells ([1]; co-culture with HSP60-treated CD4+CD25+ (1:9), anti-CD3, 6 hr): down-regulation of ERK phosphorylation, inhibition of nuclear translocation of NF-κB and T-bet expression
effect on cytokine secretion at doses in the order of 10 ng/ml [2]: did not affect cytokine secretion
inhibition of IFN-γ and TNF-α secretion in purified CD4+CD25- T cells ([2]; 1 ng/ml, 2 hours, anti-CD3 24 hours): completely prevented the inhibition of IFN-γ and TNF-α secretion by HSP60 treatment
enhancement of IL-10 secretion [2, 3]: 2-3 fold
inhibition of anti-CD3-induced IFN-γ secretion [2, 3]: about 50%
inhibition of anti-CD3-induced TNF-α secretion [2, 3]: about 50%
secretion of IL-10 and TGF-β ([2]; CD4+CD25- T cells, 1 ng/ml): but not of CD4^+CD25^− T cells
cytokine secretion without anti-CD3 ([2]; HSP60 alone, 0.01-1000 ng/ml): did not induce cytokine secretion by the T cells
higher concentrations at which cytokine secretion was again affected significantly ([2]; P<0.05): 0.1-1 μpg/ml
low concentrations with significant effects on cytokine secretion ([2]; P<0.05): 0.1 to 1.0 ng/mL
cytokine secretion of CD8+ T cells ([2]; anti-CD3-activated): unresponsive to HSP60 at all concentrations tested
secretion of IL-10 and TGF-β ([2]; un-separated CD4+ or CD4+CD25+ T cells, 1 ng/ml): significantly up-regulated the secretion of IL-10 and TGF-β
inhibition of IFN-γ or TNF-α secretion in co-culture with CD8+ T cells (CD8^+ T cells): 3-4 fold
expression of SOCS3 (SOCS3; BALB/c lymph node cells): induced the expression of SOCS3 in BALB/c lymph node cells
SOCS3 expression (SOCS3; T cells from TLR2-knockout mice): SOCS3 expression remained at the low levels of untreated cells
SOCS3 expression (SOCS3; wild type C57BL/6J-derived T cells): induced SOCS3 expression at levels similar to those induced by HSP60 in human T cells
migration of mouse lymph node cells towards SDF-1α (BALB/c lymph node-cells): inhibited migration of mouse lymph node cells towards SDF-1α
SDF-1α-induced T-cell chemotaxis through TNF-α-activated endothelial cells (human T cells): significant inhibition of T-cell chemotaxis toward SDF-1α
SDF-1α-induced T-cell chemotaxis through fibronectin (human T cells; various concentrations): significant inhibition of T-cell chemotaxis toward SDF-1α
